According to publication PMC9482650, “Quantitative fragmentomics allow affinity mapping of interactomes” (Nature Communications, 2022):
Numbering of substitutions follows the chain as printed.

T1: TJP3_3, O95049
T1 sequence (O95049 375-456, limits assumed, looked up): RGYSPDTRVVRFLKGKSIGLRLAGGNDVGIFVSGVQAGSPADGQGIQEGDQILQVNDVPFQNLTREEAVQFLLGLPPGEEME

T2: SYNJ2BP, P57105
T2 sequence (P57105 8-110, limits assumed, looked up): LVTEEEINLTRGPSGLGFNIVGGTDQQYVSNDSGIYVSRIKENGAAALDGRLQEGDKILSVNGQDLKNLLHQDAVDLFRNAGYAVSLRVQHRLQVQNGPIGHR

T3: PARD3B_1, Q8TEW8
T3 sequence (Q8TEW8 196-299, limits assumed, looked up): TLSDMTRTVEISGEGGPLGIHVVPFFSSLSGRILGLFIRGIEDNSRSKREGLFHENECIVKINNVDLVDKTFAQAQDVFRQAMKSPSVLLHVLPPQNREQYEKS

T4: GRIP1_5, Q9Y3R0
T4 sequence (Q9Y3R0 568-668, limits assumed, looked up): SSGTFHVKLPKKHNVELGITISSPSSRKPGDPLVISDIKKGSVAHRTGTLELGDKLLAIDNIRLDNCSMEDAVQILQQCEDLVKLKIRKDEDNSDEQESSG

T5: SHANK1, Q9Y566
T5 sequence (Q9Y566 658-767, limits assumed, looked up): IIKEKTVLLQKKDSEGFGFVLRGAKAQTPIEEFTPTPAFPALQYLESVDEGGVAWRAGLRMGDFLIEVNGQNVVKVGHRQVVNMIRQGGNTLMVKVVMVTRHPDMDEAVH

T6: APBA1_2, Q02410
T6 sequence (Q02410 742-832, limits assumed, looked up): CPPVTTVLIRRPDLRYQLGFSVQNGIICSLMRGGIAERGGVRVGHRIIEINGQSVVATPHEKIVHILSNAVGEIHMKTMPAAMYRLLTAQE

T7: LIN7C, Q9NUP9
T7 sequence (Q9NUP9 88-185, limits assumed, looked up): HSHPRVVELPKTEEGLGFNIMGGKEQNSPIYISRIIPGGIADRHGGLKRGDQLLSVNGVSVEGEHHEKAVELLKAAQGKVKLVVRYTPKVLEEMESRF

T8: RADIL, Q96JH8
T8 sequence (Q96JH8 971-1071, limits assumed, looked up): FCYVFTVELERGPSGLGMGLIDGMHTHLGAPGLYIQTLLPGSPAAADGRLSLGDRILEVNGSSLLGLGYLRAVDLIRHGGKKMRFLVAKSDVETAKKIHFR

T9: LIN7A, O14910
T9 sequence (O14910 103-200, limits assumed, looked up): T7 sequence (Q9NUP9 88-185, limits assumed, looked up) with E13D, I20V, I40V, D42E, Q77K, G78D, K79S, S96A

T10: DLG3_1, Q92796
T10 sequence (Q92796 125-227, limits assumed, looked up): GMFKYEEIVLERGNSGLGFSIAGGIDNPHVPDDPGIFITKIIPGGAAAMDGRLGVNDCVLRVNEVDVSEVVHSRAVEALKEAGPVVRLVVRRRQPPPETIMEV


Target: T1, TJP3_3, O95049
Experiment: holdup assay
Parameters: key: below the threshold = too weak to quantify, mostly under pKd 3.1 to 4
Conditions: plain residues with an end cap or a label only (N-terminal biotin on a linker: ado-ado)

pKd	Binder
below the threshold	TRKRSGEAAV [PFKM, P08237]
below the threshold	PYPTADHMLA [JUP, P14923]

Target: MAST1, Q9Y2H9
Experiment: holdup assay
Parameters: key: below the threshold = too weak to quantify, mostly under pKd 3.1 to 4
Conditions: plain residues with an end cap or a label only (N-terminal biotin on a linker: ado-ado)

Sequence of MAST1, Q9Y2H9 (Q9Y2H9 962-1065): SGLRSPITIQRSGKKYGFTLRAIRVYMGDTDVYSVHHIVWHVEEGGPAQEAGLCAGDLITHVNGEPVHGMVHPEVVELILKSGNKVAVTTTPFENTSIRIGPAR

pKd	Binder
4.08	TRKRSGEAAV [PFKM, P08237]
below the threshold	PYPTADHMLA [JUP, P14923]

Target: MAGI2_5, Q86UL8
Experiment: holdup assay
Parameters: key: below the threshold = too weak to quantify, mostly under pKd 3.1 to 4
Conditions: plain residues with an end cap or a label only (N-terminal biotin on a linker: ado-ado)

Sequence of MAGI2_5, Q86UL8 (Q86UL8 915-1017): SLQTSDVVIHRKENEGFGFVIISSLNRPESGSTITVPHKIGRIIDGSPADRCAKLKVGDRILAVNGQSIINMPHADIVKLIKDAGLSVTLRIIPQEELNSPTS

pKd	Binder
below the threshold	TRKRSGEAAV [PFKM, P08237]
below the threshold	PYPTADHMLA [JUP, P14923]

Target: PTPN3, P26045
Experiment: holdup assay
Parameters: key: below the threshold = too weak to quantify, mostly under pKd 3.1 to 4
Conditions: plain residues with an end cap or a label only (N-terminal biotin on a linker: ado-ado)

Sequence of PTPN3, P26045 (P26045 505-587): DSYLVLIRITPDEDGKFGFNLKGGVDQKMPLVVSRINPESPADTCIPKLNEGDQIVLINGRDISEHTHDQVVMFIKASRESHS

pKd	Binder
4.15	TRKRSGEAAV [PFKM, P08237]
3.97	PYPTADHMLA [JUP, P14923]

Target: T2, SYNJ2BP, P57105
Experiment: holdup assay
Parameters: key: below the threshold = too weak to quantify, mostly under pKd 3.1 to 4
Conditions: plain residues with an end cap or a label only (N-terminal biotin on a linker: ado-ado)

pKd	Binder
4.06	TRKRSGEAAV [PFKM, P08237]
below the threshold	PYPTADHMLA [JUP, P14923]

Target: T3, PARD3B_1, Q8TEW8
Experiment: holdup assay
Parameters: key: below the threshold = too weak to quantify, mostly under pKd 3.1 to 4
Conditions: plain residues with an end cap or a label only (N-terminal biotin on a linker: ado-ado)

pKd	Binder
below the threshold	TRKRSGEAAV [PFKM, P08237]
below the threshold	PYPTADHMLA [JUP, P14923]

Target: T4, GRIP1_5, Q9Y3R0
Experiment: holdup assay
Parameters: key: below the threshold = too weak to quantify, mostly under pKd 3.1 to 4
Conditions: plain residues with an end cap or a label only (N-terminal biotin on a linker: ado-ado)

pKd	Binder
below the threshold	TRKRSGEAAV [PFKM, P08237]
below the threshold	PYPTADHMLA [JUP, P14923]

Target: AHNAK1, Q09666
Experiment: holdup assay
Parameters: key: below the threshold = too weak to quantify, mostly under pKd 3.1 to 4
Conditions: plain residues with an end cap or a label only (N-terminal biotin on a linker: ado-ado)

Sequence of AHNAK1, Q09666 (Q09666 4-100): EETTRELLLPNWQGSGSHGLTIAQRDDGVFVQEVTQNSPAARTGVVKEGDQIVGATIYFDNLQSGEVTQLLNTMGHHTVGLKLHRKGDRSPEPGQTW

pKd	Binder
below the threshold	TRKRSGEAAV [PFKM, P08237]
below the threshold	PYPTADHMLA [JUP, P14923]

Target: T5, SHANK1, Q9Y566
Experiment: holdup assay
Parameters: key: below the threshold = too weak to quantify, mostly under pKd 3.1 to 4
Conditions: plain residues with an end cap or a label only (N-terminal biotin on a linker: ado-ado)

pKd	Binder
below the threshold	TRKRSGEAAV [PFKM, P08237]
below the threshold	PYPTADHMLA [JUP, P14923]

Target: Inadl_1, Q8NI35
Experiment: holdup assay
Parameters: key: below the threshold = too weak to quantify, mostly under pKd 3.1 to 4
Conditions: plain residues with an end cap or a label only (N-terminal biotin on a linker: ado-ado)

Sequence of Inadl_1, Q8NI35 (Q8NI35 113-229): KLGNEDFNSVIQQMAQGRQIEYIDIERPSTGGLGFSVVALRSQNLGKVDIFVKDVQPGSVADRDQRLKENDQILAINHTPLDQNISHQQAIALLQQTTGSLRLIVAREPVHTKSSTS

pKd	Binder
below the threshold	TRKRSGEAAV [PFKM, P08237]
below the threshold	PYPTADHMLA [JUP, P14923]

Target: T6, APBA1_2, Q02410
Experiment: holdup assay
Parameters: key: below the threshold = too weak to quantify, mostly under pKd 3.1 to 4
Conditions: plain residues with an end cap or a label only (N-terminal biotin on a linker: ado-ado)

pKd	Binder
3.9	TRKRSGEAAV [PFKM, P08237]
below the threshold	PYPTADHMLA [JUP, P14923]

Target: DLG1_1, Q12959
Experiment: holdup assay
Parameters: key: below the threshold = too weak to quantify, mostly under pKd 3.1 to 4
Conditions: plain residues with an end cap or a label only (N-terminal biotin on a linker: ado-ado)

pKd	Binder
below the threshold	TRKRSGEAAV [PFKM, P08237]
below the threshold	PYPTADHMLA [JUP, P14923]

Target: MAGI1_1, Q96QZ7
Experiment: holdup assay
Parameters: key: below the threshold = too weak to quantify, mostly under pKd 3.1 to 4
Conditions: plain residues with an end cap or a label only (N-terminal biotin on a linker: ado-ado)

Sequence of MAGI1_1, Q96QZ7 (Q96QZ7 1-106): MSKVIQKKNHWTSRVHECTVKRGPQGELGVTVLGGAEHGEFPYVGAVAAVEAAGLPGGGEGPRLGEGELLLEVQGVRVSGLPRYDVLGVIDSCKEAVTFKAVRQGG

pKd	Binder
below the threshold	TRKRSGEAAV [PFKM, P08237]
below the threshold	PYPTADHMLA [JUP, P14923]

Target: MAGI1_2, Q96QZ7
Experiment: holdup assay
Parameters: key: below the threshold = too weak to quantify, mostly under pKd 3.1 to 4
Conditions: plain residues with an end cap or a label only (N-terminal biotin on a linker: ado-ado)

Sequence of MAGI1_2, Q96QZ7 (Q96QZ7 456-580): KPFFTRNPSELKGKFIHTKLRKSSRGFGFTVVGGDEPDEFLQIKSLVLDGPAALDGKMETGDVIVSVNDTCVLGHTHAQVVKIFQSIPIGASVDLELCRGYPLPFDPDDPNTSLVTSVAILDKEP

pKd	Binder
below the threshold	TRKRSGEAAV [PFKM, P08237]
below the threshold	PYPTADHMLA [JUP, P14923]

Target: GORASP1, Q9BQQ3
Experiment: holdup assay
Parameters: key: below the threshold = too weak to quantify, mostly under pKd 3.1 to 4
Conditions: plain residues with an end cap or a label only (N-terminal biotin on a linker: ado-ado)

Sequence of GORASP1, Q9BQQ3 (Q9BQQ3 1-208): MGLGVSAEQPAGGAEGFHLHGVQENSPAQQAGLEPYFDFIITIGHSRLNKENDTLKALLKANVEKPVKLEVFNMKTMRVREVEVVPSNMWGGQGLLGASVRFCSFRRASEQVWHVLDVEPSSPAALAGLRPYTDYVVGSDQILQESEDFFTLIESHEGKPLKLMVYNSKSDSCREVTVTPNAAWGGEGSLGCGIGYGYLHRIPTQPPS

pKd	Binder
below the threshold	TRKRSGEAAV [PFKM, P08237]
below the threshold	PYPTADHMLA [JUP, P14923]

Target: PARD3_3, Q8TEW0
Experiment: holdup assay
Parameters: key: below the threshold = too weak to quantify, mostly under pKd 3.1 to 4
Conditions: plain residues with an end cap or a label only (N-terminal biotin on a linker: ado-ado)

Sequence of PARD3_3, Q8TEW0 (Q8TEW0 582-685): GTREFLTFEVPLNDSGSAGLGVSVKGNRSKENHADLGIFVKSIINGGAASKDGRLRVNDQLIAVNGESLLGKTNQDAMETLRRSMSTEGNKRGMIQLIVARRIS

pKd	Binder
below the threshold	TRKRSGEAAV [PFKM, P08237]
below the threshold	PYPTADHMLA [JUP, P14923]

Target: Inadl_2, Q8NI35
Experiment: holdup assay
Parameters: key: below the threshold = too weak to quantify, mostly under pKd 3.1 to 4
Conditions: plain residues with an end cap or a label only (N-terminal biotin on a linker: ado-ado)

Sequence of Inadl_2, Q8NI35 (Q8NI35 238-335): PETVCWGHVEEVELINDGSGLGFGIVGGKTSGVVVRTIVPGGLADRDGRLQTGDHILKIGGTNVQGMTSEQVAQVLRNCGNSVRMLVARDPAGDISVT

pKd	Binder
below the threshold	TRKRSGEAAV [PFKM, P08237]
below the threshold	PYPTADHMLA [JUP, P14923]

Target: T7, LIN7C, Q9NUP9
Experiment: holdup assay
Parameters: key: below the threshold = too weak to quantify, mostly under pKd 3.1 to 4
Conditions: plain residues with an end cap or a label only (N-terminal biotin on a linker: ado-ado)

pKd	Binder
below the threshold	TRKRSGEAAV [PFKM, P08237]
3.87	PYPTADHMLA [JUP, P14923]

Target: NHERF2_2, Q15599
Experiment: holdup assay
Parameters: key: below the threshold = too weak to quantify, mostly under pKd 3.1 to 4
Conditions: plain residues with an end cap or a label only (N-terminal biotin on a linker: ado-ado)

Sequence of NHERF2_2, Q15599 (Q15599 142-238): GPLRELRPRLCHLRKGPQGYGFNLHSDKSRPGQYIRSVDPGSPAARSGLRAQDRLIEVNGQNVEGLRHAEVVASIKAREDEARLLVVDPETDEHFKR

pKd	Binder
below the threshold	TRKRSGEAAV [PFKM, P08237]
below the threshold	PYPTADHMLA [JUP, P14923]

Target: T8, RADIL, Q96JH8
Experiment: holdup assay
Parameters: key: below the threshold = too weak to quantify, mostly under pKd 3.1 to 4
Conditions: plain residues with an end cap or a label only (N-terminal biotin on a linker: ado-ado)

pKd	Binder
below the threshold	TRKRSGEAAV [PFKM, P08237]
below the threshold	PYPTADHMLA [JUP, P14923]

Target: HTRA2, O43464
Experiment: holdup assay
Parameters: key: below the threshold = too weak to quantify, mostly under pKd 3.1 to 4
Conditions: plain residues with an end cap or a label only (N-terminal biotin on a linker: ado-ado)

Sequence of HTRA2, O43464 (O43464 355-458): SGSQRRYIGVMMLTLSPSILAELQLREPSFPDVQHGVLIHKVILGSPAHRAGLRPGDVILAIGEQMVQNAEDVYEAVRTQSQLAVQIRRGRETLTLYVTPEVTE

pKd	Binder
below the threshold	TRKRSGEAAV [PFKM, P08237]
below the threshold	PYPTADHMLA [JUP, P14923]

Target: DLG2_2, Q15700
Experiment: holdup assay
Parameters: key: below the threshold = too weak to quantify, mostly under pKd 3.1 to 4
Conditions: plain residues with an end cap or a label only (N-terminal biotin on a linker: ado-ado)

Sequence of DLG2_2, Q15700 (Q15700 189-283): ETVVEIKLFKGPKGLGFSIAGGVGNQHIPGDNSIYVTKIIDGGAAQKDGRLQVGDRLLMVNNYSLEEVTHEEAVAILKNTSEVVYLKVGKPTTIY

pKd	Binder
3.59	TRKRSGEAAV [PFKM, P08237]
below the threshold	PYPTADHMLA [JUP, P14923]

Target: T9, LIN7A, O14910
Experiment: holdup assay
Parameters: key: below the threshold = too weak to quantify, mostly under pKd 3.1 to 4
Conditions: plain residues with an end cap or a label only (N-terminal biotin on a linker: ado-ado)

pKd	Binder
below the threshold	TRKRSGEAAV [PFKM, P08237]
below the threshold	PYPTADHMLA [JUP, P14923]

Target: DLG4_2, P78352
Experiment: holdup assay
Parameters: key: below the threshold = too weak to quantify, mostly under pKd 3.1 to 4
Conditions: plain residues with an end cap or a label only (N-terminal biotin on a linker: ado-ado)

Sequence of DLG4_2, P78352 (P78352 155-259): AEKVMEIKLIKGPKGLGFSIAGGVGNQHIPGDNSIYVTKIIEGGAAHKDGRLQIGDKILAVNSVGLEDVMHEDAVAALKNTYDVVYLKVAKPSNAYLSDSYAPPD

pKd	Binder
3.93	TRKRSGEAAV [PFKM, P08237]
below the threshold	PYPTADHMLA [JUP, P14923]

Target: T10, DLG3_1, Q92796
Experiment: holdup assay
Parameters: key: below the threshold = too weak to quantify, mostly under pKd 3.1 to 4
Conditions: plain residues with an end cap or a label only (N-terminal biotin on a linker: ado-ado)

pKd	Binder
below the threshold	TRKRSGEAAV [PFKM, P08237]
below the threshold	PYPTADHMLA [JUP, P14923]

Target: Inadl_9, Q8NI35
Experiment: holdup assay
Parameters: key: below the threshold = too weak to quantify, mostly under pKd 3.1 to 4
Conditions: plain residues with an end cap or a label only (N-terminal biotin on a linker: ado-ado)

Sequence of Inadl_9, Q8NI35 (Q8NI35 1530-1615): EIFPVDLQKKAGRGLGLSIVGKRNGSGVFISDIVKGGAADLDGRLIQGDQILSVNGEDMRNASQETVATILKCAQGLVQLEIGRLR

pKd	Binder
below the threshold	TRKRSGEAAV [PFKM, P08237]
below the threshold	PYPTADHMLA [JUP, P14923]

Target: GRIP2_3, Q9C0E4
Experiment: holdup assay
Parameters: key: below the threshold = too weak to quantify, mostly under pKd 3.1 to 4
Conditions: plain residues with an end cap or a label only (N-terminal biotin on a linker: ado-ado)

Sequence of GRIP2_3, Q9C0E4 (Q9C0E4 238-339): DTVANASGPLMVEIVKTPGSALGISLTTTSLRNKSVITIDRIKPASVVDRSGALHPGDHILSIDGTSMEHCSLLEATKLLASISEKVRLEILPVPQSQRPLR

pKd	Binder
below the threshold	TRKRSGEAAV [PFKM, P08237]
below the threshold	PYPTADHMLA [JUP, P14923]
